Test results: paper PMC7424515, “Molecular characterization of pyridoxine 5′-phosphate oxidase and its pathogenic forms associated with neonatal epileptic encephalopathy” (Scientific Reports, 2020)

B1: human pyridoxine 5′-phosphate oxidase (PNPO), wild type (enzyme)
chain: MTCWLRGVTATFGRPAEWPGYLSHLCGRSAAMDLGPMRKSYRGDREAFEETHLTSLDPVKQFAAWFEEAVQCPDIGEANAMCLATCTRDGKPSARMLLLKGFGKDGFRFFTNFESRKGKELDSNPFASLVFYWEPLNRQVRVEGPVKKLPEEEAECYFHSRPKSSQIGAVVSHQSSVIPDREYLRKKNEELEQLYQDQEVPKPKSWGGYVLYPQVMEFWQGQTNRLHDRIVFRRGLPTGDSPLGPMTHRGEEDWLYERLAP
notes: also called wild type PNPO; pyridoxal 5′-phosphate synthase; source: E. coli, pET28-PNPO, purified (HisTrap metal-chelation chromatography)
B2: human PNPO R116Q/R225H double variant (enzyme)
chain: MTCWLRGVTATFGRPAEWPGYLSHLCGRSAAMDLGPMRKSYRGDREAFEETHLTSLDPVKQFAAWFEEAVQCPDIGEANAMCLATCTRDGKPSARMLLLKGFGKDGFRFFTNFESQKGKELDSNPFASLVFYWEPLNRQVRVEGPVKKLPEEEAECYFHSRPKSSQIGAVVSHQSSVIPDREYLRKKNEELEQLYQDQEVPKPKSWGGYVLYPQVMEFWQGQTNHLHDRIVFRRGLPTGDSPLGPMTHRGEEDWLYERLAP
notes: Combination of replacements found together in PNPOD patients; source: E. coli Rosetta(λDE3), purified (HisTrap metal-chelation chromatography)
B3: human PNPO R225H variant (enzyme)
chain: MTCWLRGVTATFGRPAEWPGYLSHLCGRSAAMDLGPMRKSYRGDREAFEETHLTSLDPVKQFAAWFEEAVQCPDIGEANAMCLATCTRDGKPSARMLLLKGFGKDGFRFFTNFESRKGKELDSNPFASLVFYWEPLNRQVRVEGPVKKLPEEEAECYFHSRPKSSQIGAVVSHQSSVIPDREYLRKKNEELEQLYQDQEVPKPKSWGGYVLYPQVMEFWQGQTNHLHDRIVFRRGLPTGDSPLGPMTHRGEEDWLYERLAP
notes: Pathogenic variant found in PNPOD patients; source: E. coli Rosetta(λDE3), purified (HisTrap metal-chelation chromatography)
B4: human PNPO R141C variant (enzyme)
chain: MTCWLRGVTATFGRPAEWPGYLSHLCGRSAAMDLGPMRKSYRGDREAFEETHLTSLDPVKQFAAWFEEAVQCPDIGEANAMCLATCTRDGKPSARMLLLKGFGKDGFRFFTNFESRKGKELDSNPFASLVFYWEPLNRQVCVEGPVKKLPEEEAECYFHSRPKSSQIGAVVSHQSSVIPDREYLRKKNEELEQLYQDQEVPKPKSWGGYVLYPQVMEFWQGQTNRLHDRIVFRRGLPTGDSPLGPMTHRGEEDWLYERLAP
notes: Pathogenic variant found in a PNPOD patient; source: E. coli Rosetta(λDE3), purified (HisTrap metal-chelation chromatography)
B5: human PNPO G118R variant (enzyme)
chain: MTCWLRGVTATFGRPAEWPGYLSHLCGRSAAMDLGPMRKSYRGDREAFEETHLTSLDPVKQFAAWFEEAVQCPDIGEANAMCLATCTRDGKPSARMLLLKGFGKDGFRFFTNFESRKRKELDSNPFASLVFYWEPLNRQVRVEGPVKKLPEEEAECYFHSRPKSSQIGAVVSHQSSVIPDREYLRKKNEELEQLYQDQEVPKPKSWGGYVLYPQVMEFWQGQTNRLHDRIVFRRGLPTGDSPLGPMTHRGEEDWLYERLAP
notes: as for B3

Molecular target: human PNPO X262Q variant (human)
Assay: SEC; Superdex 200 10/300 GL; 20 mM potassium-phosphate buffer, pH 7.6, 150 mM NaCl, 5 mM 2-mercaptoethanol; oligomeric state from elution profile

Stoichiometry N, 2:
human PNPO X262Q variant (enzyme)

Molecular target: the molecule itself
Assay: as above

Stoichiometry N, 2:
B1
B2
B3
B4
B5
